The text below walks through data of patent US20170267766A1.

The target in experiment [1] is monkey IGF-1R (on COS-7 cells) (African green monkey). Briefly: FACS titration, Cos-7.
The target of experiment [2] is human IGF-1R (native, on cells) (human) (UniProt P08069). In words: FACS titration, MCF-7.
The target is the same in experiment [3]. Briefly: cell-based or functional assay.
The target in experiment [4] is soluble recombinant human IGF-1R hetero-tetramere with C-terminal 10-His tag (R&D Systems 305-GR) (human) (UniProt P08069). In words: SPR Biacore X100, Ln(2)/koff, mean of 4. In general terms: In SPR one partner is held on a chip, and binding of the other changes the refractive index at the surface.
Experiment [5] has the same target. In words: SPR Biacore X100, His-captured h-IGF-1R ~600 RU, mean of 4.
The target of experiment [6] is monkey IGF-1R (on COS-7 cells) (African green monkey). Briefly: FACS on COS-7 cells, 4°C; inset table, axis log [M] (Table 14b prints it rounded as 5.1E-10).
For experiment [7], the target named is human IGF-1R (native, on cells) (human) (UniProt P08069). In words: FACS on MCF-7 cells, 4°C; inset table, axis log [M] (Table 14b prints it rounded as 7.09E-10).

B1: hz208F2 H026/L024 (antibody, from a related filing, V domains shown)
VH: QVQLVQSGAEVKKPGASVKMSCKASGYTFTSYYIYWVKQAPGQGLEWLGWIWPGDGSTKYNEKFQGRVTLTADKSSNTAYMFLSSLRSEDTAVYFCASPMITPNYAMDYWGQGTLVTVSS
VL: DIQMTQSPSSLSASVGDRVTISCRASQDISKYLNWYQQKPGKAPKLLIYYTSRLHSGVPSRFSGRGSGTDYSLTISNLQPEDFATYFCQQGSTLPYTFGGGTKVEIKR
One may read the EC50 as the concentration giving half of the maximal effect. Usually Kd stands for the free concentration of one partner at which half of the binding sites on the other are occupied at equilibrium, for simple one-to-one binding. As for B1, the half-maximal effective concentration (EC50) worked out at 0.51 nM in experiment [1], 0.709 nM in experiment [2], 0.511 nM in experiment [6] and 0.71 nM in experiment [7]. In experiment [3], this molecule came in with a % internalization of 87%. In addition, the ΔMFI (MCF-7, 10 µg/ml, 4 h) in experiment [3] worked out at 344 MFI. Moreover, the half-life of the complex in experiment [4] lay in the range of 2 to 3 h. Also, the Kd in experiment [5] was 0.06 nM.
